Measurements: the domain aggregation screens of Martell et al. (2025)

Assay: soluble fraction after stress (log2 fold change); higher = more stays soluble; pooled small domains, quantitative proteomics
Conditions: stress: 75 degC
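Further: 20 min heating vs room temperature control held 20 min.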

Sequence	soluble fraction (log2)
HMERQILFTKEDLIEFGLSGGTDSRKRRDVLGHILGIGYSNSKQFLNRLNNFGVTREEFLSAIERIG	-0.816
HMERTVEVVDINDVFSQFLRLYSRERAAGLLSVFKRVEHGLSWQGNPVLLERILSNVFENAIKYAA	0.149
HMERVIYLLNGREVPAAEIRAAEPEALTVDRFYSSENLPAEYRDRNPELVVAFTAEEPLRHY	0.512
HMERVNILEKATKDIPNVEVKAFEGLSVNFARENHAQVIVRGLRAVTDFEYELQMAQTNRVLAPDVDTVF	-0.0564
HMERYSVQVGSFRNMRYAERLKQELQGEDFPAYIEKSGEFNRVRVGKGLTLEEATQLEQVLRKSGYQTVIV	-0.705
HMESIGANIRRLRKERNMSQDELARKAFTNRSNINRYESGKMVPSADTTEKIEEALGVPAGTLAQ	-0.214
HMESKDIRYVQLQTVSPEEVLQALALIMPRSDVYVEPTGKLVVLHGSKETLDRAEELILALDNAV	-0.116
HMESKITTAEAAAILNASPQFVRVAMQRGILNIGIAMQMPNSNKWTYNISPKLLGEYSGKNIEYELERLR	-1.65
HMESRTQVYDFYKDLFREKRRPLRAEEMLSALKSQRGIVGVNQYQIIEQHGIVRLSGSGRSALYWDTDLGS	-2.69
HMESSREVSFSEFMKQIDSGRVSSVKLDGETIYVRNSDGTSYKVIQPLGTDLIGVLRKSDIDVQAIKQ	0.107
HMESYNIVEQVLTKKILSKGNTLAKLSNEFDGLVMLVIRGDEFIIPNGETLLFEKDILVINNGP	-2.68
HMESYTGLAVTEDDDGWSNVRSGNSTSYSILFKIYAGEKFNILSNDGKWSYIDFNGRKGYIHNSIIRKY	-3.82
HMETAADLLAAAKENPARFGILASEGRFGLGYMNDDLLDPDNLVAISREEADDLRGLGVYFHNLD	0.293
HMETALYVEDLDRAVRFYESVMGLNTMSRGVRLVALDAGEGTVLLLFLRGATTSGASFEGGWIPPH	0.05
HMETDNEKVRTAFQNGLAAYREQDWDRAEAAFGAVLAEMPEDRPSLVYLERIAHLRKKAPPGAWDGVWI	-0.335
HMETENLSPREREILEYIVKGYSYKMIAADLNIATETVRSHIKKIYKKLQVNSATEAVYKYSN	-1.51
HMETEQVEMIRVVGMHVDEAKKALLDLGLSPEIKYEESSSYDAGTVLRASVQDGLMIDKGTNIVLTVAEA	0.293
HMETFEKIKELAKKRGKALGQVEEDLGYGRNTLYKIKNSTPNAERIAEIANYFNVSTDYLLGRTDNPTIAK	0.108
HMETFNMTQKEITRLRVINQAIDKVITIREAAELLGLSERQVIRLKGGVEKFGPAFIIHKNRGRKP	-1.57
HMETGLSNYEFKRIREQAEALLSDGQVRRINDLVDSIKNENAEKVIRVIRFLIDTEELILEDDRVSAKKS	-0.615
HMETIVGIDPDSKKKIVLKKGIKGRPDYLSFNKKNYSLPSELKEKNVSLEQALEIINDKKSNKKKIK	0.369
HMETLSKVGSTGSEVRQIQTKLKNWGYFSDKVDGIYGEKTRAAVVWFQKKNGLTADGIAGPATLKAMGIYT	-0.705
HMETLSVRERMTSIISLLNKHEDIEFSKLFNISEGRLGVVVTFLALLELVKESLVDVIQNQPMSKLYIGKK	-0.278
HMETLTPQEHKVLLLAVKGRTNGEIASELGIAQNTVKNHLAHIYAKMGVGNRTELASEYLRRIH	-0.203
HMETTEELISKTVPISYADMAALTGILDGVKSARGDIQVDDRTSTIIIHDIQSSIDEMMRLIKILD	-1.04
HMETTMVEIKAEFTIRNRLDIPAMMEKAGYKDRGEFLSVLEKITGNYNWDRDVKKGDTFMVPSKLA	-1.75

Sequence	soluble fraction (log2)
HMETVPMIDLRGMTQEQAEKAIVGLGLTVGTVDHSSSDMPAGQVWFQSVEPKDEVAPGTKVNIIISTGS	0.0577
HMETYNLDVGDSAVLQYQNVSRISVGNPDVLDAIPLDKSQILLTGKATGGAALIVWDSKGMHMEKVMVHPA	-0.428
HMETYTVSSKDGYANVRNEATVNSDLIAELKNGTLVTKFKEKGEWYYIEFEREDGTPFDYGYIHKSQLK	-0.00382
HMEVALEVPELRGLSMKQATNTLMASGFEVQKVGSGTIYAQFPLPGERLRTGYAVTIRGKTRDLG	-0.345
HMEVAPEKVLEALNELPEIYKIVLNLYAVENMSHKEIAKKLGISLGSSKSRLSRGRVMLNTLLNR	-1.3
HMEVDWLEVEKVIVSSSYSWMENSPKVKLLQEYIGVTADGIYGLGTWGAHRTHAVDLGFINLSYPIP	-0.129
HMEVEADEFQQLLRSGEYVQALDRARANQDIGLRQQQIVQIARHQAASGIQAGAMGSLASLYQF	-0.0286
HMEVHLMPGTVLLREYESNEYRVTVTPEGFYDLNGKVFKSLSAVARHITGVNWSGPRFFGVEP	-2.81
HMEVLSYYGSRGQEVVNIQTKLKQWGYYKGNIDGIFGNLTYQAVREFQRKNGLKVDGIVGPETLAALGLPT	-2.64
HMEVPQVETEKVEAKLKEAEVLLVKVTDSSLKANATETLAGLRNNLTLQTMDNNGIMAEAEKLLALLRES	0.0802
HMEVPTGNHIRRWRKSLDITQVKLSSLSGVAQSIIAKIENETVDPRVSTLRKLVEALSRFENP	-1.89
HMEVQVGKQVRAFRETLGMTVQQFAERTGFSAALLAQIENRMVSPSLGTLVKIANTFGTTVSSFIG	-0.0249
HMEVSTDADFEAVGIRAELIPILQKLGFTTVAQLKEVKATKLFNDIPGMRKKLKLDAVQNPTLQEIEGWLK	-0.0412
HMEVTLEEKLSYVEEYAKVHSHFSFRDLLKKQASKTQIVVTFLAILELMKTGKIQITQEHIFDDIVITAK	0.0631
HMEVTYQETLRVLYNAIDKLPPQTKEIILIGLDGKDNNEIAATLNISVNTVKTLKKNAYKTLRELLVD	0.0283
HMEWNPEKQHLLENYITNYSRQLNDTGLFYKNLDWNYIFNLVGVDDQEFLMLKIDEIYDESINVY	-1.74
HMEWNREQLEQIVLQHIRKHGFITRATYTELTGRLKNSALADLKSFAAEGIIKRVGRGNQMHFIVPL	-2.35
HMEWTDHLAEELRSLAVEGEHLEIIANKLGISPGSARAKLVNLNIYNDYQLAHIERLEADTLQAK	-0.349
HMEYFDDEELDRYKGRTSDSFTDDEAEEFREVMMTMHPEEVKAWNRSLILRDVAMPDQIKDDYIMLAG	-0.141
HMEYKYNPADYPYPLNEDIEKVYSAYREKSIGKLEAAVQNLYYTLKQARRDNILSDVKVNEMQQYFLALRN	-0.857
HMEYNLTLEELNRDLYIRGEIWNVGDVVKTTDGDEGTIIRKGTNYVVFEDLRRVWLHNLEEVK	-1.51
HMEYREFEAMTIRAIATLPPTQGHVIMLSRFEGLDNKEIALRLNLSLQTVKNTLTQGLKELKNKMRKLP	-2.02
HMEYSAAYDRELESIFNLTERGKWEEAEAEVGLLLQQYPEDKTLLRISEWVATQKTILREQAIEDRIRS	-0.0776
HMEYSYKLIDLLVDRFSEEGVDPEEAREYINLFHRFSQGLDPDKRDITKYSWDELYRTVNDKKDS	0.664
HMEYTVNHYPEKHRFEVVEDGLTAYVEYRLRGDALDIIHTIVPKNLEGRGIAATLVETAYKYAKEQ	-1.27
HMFAAIFADDSGFTTRSKRFGPYVEEIAADWQAVKQLSDEDAKQALVPLVKKIELALSTLQQFVSSV	-0.166

Sequence	soluble fraction (log2)
HMFAATGTVNTEGSSLRLRAEASTSSSVLKQLSHGTQVDVLSGLVDGWYQVSYKGTTGYVSGEYLTVTE	-0.704
HMFADLNPDENYGQVYIRTNTIDNLYQTLLDNKTRIHPNGLLELKPWGQKEFSILDPDKNLLTFGES	-0.00771
HMFAERLKELRKMRRFSQHALAERLGISQQAVGKWETGKSTPDPATLREIADIFEVSVDLLLGR	-1.17
HMFDDEELDRFAGVPADAYLPADEDEFREVFYTMRPGEVVEWVRSLELRHIEIPNGIKDEIFMMIR	-3.97
HMFDEDKLIISIGSKVRIIREPYFGTIGKVVELPPELVKMDTEAMLRVAIIKLDDGEKVTIPRANLEVILS	-2.43
HMFDEVKDAARRLAALLDQAGGTLTLNDKSAPEEVAALTGMSKKVFKRALGHLMSRSEVVVADGRITKKD	-0.709
HMFDGRSDAEKTLDLIKTAIDNILKGGAIQEYKIGTRTAKKYDMAELQVLKGEYAAMVAREKQAETMA	-0.412
HMFDGVAAGKPAILDALEDAGGFLPLNSKSSVEEIQASFSFSKRVFKQLIGMLYKERKIVITDDGIRLAD	-0.279
HMFDGYQWLKRDIIRGVYQPEEKLRMSLLTNRYGLGVGPLREALSQLVAEHLVTVVSQKGYRVAPM	-0.387
HMFDKNKPVVVEGENAEVALKKVSKYFNVPTEKLDYTLLGQKSAGLLGIGSKVYQFKVWLKREIP	-0.249
HMFDLENIRLTLARRLNVAAHLRPKYVAGFTLLLKQNFPEQNAEDLLNRLEHNQWLKVNQREIEYSPRLLM	-1.63
HMFDPAKQMQRIRKYAGMNRKEFSEWLNIPYRTMTDWELGNRTMPVYLLELIVYKVNHEIANA	0.588
HMFDREKFIKLGQEFARVAFENVNKRATDRALKTAAKHYGLPSADELLARLGSSEIAARDVVAELYPNL	-0.856
HMFDSYDIYDEAGNTVNTVKGKLSWGHLLEIYDRFDNHIGTVQERVLTFLPKFLMYINGQEIGEIR	-0.164
HMFDVNSMIAANIVAILKKQNRKQIDLAGALQTNKQTISKMLNGSRMINAIELKRIAEFLGVKMEELTKL	-2.23
HMFDVRWEQGYALAAAYAQEYGNLDVPRDYKTADGKKLGRWIQSQEQAYEQKKLSEEQISRLEMIGMQWG	-0.98
HMFEDEPSEREIRISTLLAAFLKQEDGGTAVSRERFLKENSDVAEDLQILLEMADMIQEMAGP	-0.546
HMFEKIDINFADIHQLKGLPLNSEQINSIIEYRNQNGFIENIYDLKNVNGISIDKVHELKSYIFIIDV	-2.58
HMFENPRALLEMMISLGNEQGLINMARDIVSAGEFRRLELAAGGDRRKLARMLIDHLVEVAPRLP	-0.915
HMFEQFEVENLQELQQEWGDKFNHNLEMARRAFMNFATPEAVKVLEETGMGNHPELLKVFARIGEVLAED	-0.968
HMFERINLIGVNGTTKKRSALVRLLDGEIVKIGVGDSLNGGQVVDISPATLTYLKSGKSIMLTLPK	-1.79
HMFGQRLRLARKRAGLSMQALAQRMSPPVTAQAISKYEADRMMPSSAVLVGLGKALGVSLDFLMGGQ	-2.14
HMFHFELNAAKQALEDRKTIDRAKGILMRQRGMSEDDAYKLLRTTAMSQNRKVIDVAQALVTAADLL	-0.632
HMFINTVELGRAIKRRREELGLSLRDVADVTNVSASTLSRIENGTGKPDADNIARLTGWLDMPIDRVM	-0.161
HMFIRINQTQNSPRKSVQIVESKRDGHKVRTKILRHVGIAMDDVELQKLKSLAQDIIAKMTVETENASKQ	-0.529
